In US7026456:

B1: monoclonal antibody 16G2, produced by hybridoma HIL-12F3-16G2 (ATCC HB-12449) (antibody, part only; not given: light chain and constant regions, V domains shown, part only)
VH: LEESGPSLVKPSQTLSLTCSVTGDSITSGYWNWIRKFPGNKFEYMGFISYSGSTYNNPSLKNRVSITRDTSNNQYYLQLSSVTTEDSATYYCARSSDALDYWGAGTT
B2: monoclonal antibody 20E11, produced by hybridoma HIL-12F3-20E11 (ATCC HB-12448) (antibody, part only; not given: light chain and constant regions, V domains shown, part only)
VH: EESGPSLVKPSQTLSLTCSVTGDSITSGYWNWIRKFPDNTLEYMGYISYSGSTYYNPSLRSRISITRDTSKNQYSMQLNSVTTEDTATYYCARSSDAMDYWG

Target: natural human IL-12 (p75 heterodimer), purified from stimulated human blood cultures (human) (UniProt P29459)
Assay: cell-based or functional assay

Sequence of UniProt P29459 (P29459 23-219, chain 1 of 2): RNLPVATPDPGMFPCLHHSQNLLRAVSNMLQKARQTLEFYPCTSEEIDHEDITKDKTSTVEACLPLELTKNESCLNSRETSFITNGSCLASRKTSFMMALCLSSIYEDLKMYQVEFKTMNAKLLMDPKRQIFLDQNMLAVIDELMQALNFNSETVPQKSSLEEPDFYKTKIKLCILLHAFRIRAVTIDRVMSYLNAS
Sequence of UniProt P29459 (P29460 23-328, chain 2 of 2, further chain): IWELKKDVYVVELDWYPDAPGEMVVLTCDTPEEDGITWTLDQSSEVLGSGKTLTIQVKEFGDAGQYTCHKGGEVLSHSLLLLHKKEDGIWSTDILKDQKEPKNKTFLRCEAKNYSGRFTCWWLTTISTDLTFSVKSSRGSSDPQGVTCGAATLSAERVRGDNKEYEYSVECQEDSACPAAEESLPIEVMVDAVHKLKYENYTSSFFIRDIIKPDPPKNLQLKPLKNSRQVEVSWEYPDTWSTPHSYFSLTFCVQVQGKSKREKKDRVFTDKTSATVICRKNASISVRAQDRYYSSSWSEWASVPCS

Binder	IC50 of 0.25 ng/ml IL-12-stimulated proliferation of PHA-activated human lymphoblasts	IC50 of 0.25 ng/ml human IL-12-stimulated IFN-γ production by PHA-activated human lymphoblasts	inhibition of IL-12-stimulated IFN-γ production at 0.5 µg/ml antibody	inhibition of human IL-12 stimulated PHA activated lymphoblast proliferation
B1	0.01 µg/mL	0.01 µg/mL	> 90%	> 90%
B2	0.01 µg/mL	0.02 µg/mL	> 90%	> 90%
